Drawing on publication PMC4881023, “SALM5 trans-synaptically interacts with LAR-RPTPs in a splicing-dependent manner to regulate synapse development” (Scientific Reports, 2016), this text covers Kd for 3 molecules.

Assay [1] deals with SALM5 (untagged) (not stated (mouse and human SALM5 are named for other constructs)) (UniProt Q8BXA0). Description: quantitative cell-surface binding assay (HRP anti-human Fc, Scatchard analysis); apparent; SALM5 (untagged)-expressing HEK293T cells in 96-well plates, fixed, incubated with increasing concentrations of LAR-Ecto-Fc for 1 hour, HRP-conjugated anti-human-Fc, TMB colour reaction.

A further assay concerns the target T1, hySALM5-Ecto-Fc ( | human, UniProt Q96NI6 59-374).
T1 chain: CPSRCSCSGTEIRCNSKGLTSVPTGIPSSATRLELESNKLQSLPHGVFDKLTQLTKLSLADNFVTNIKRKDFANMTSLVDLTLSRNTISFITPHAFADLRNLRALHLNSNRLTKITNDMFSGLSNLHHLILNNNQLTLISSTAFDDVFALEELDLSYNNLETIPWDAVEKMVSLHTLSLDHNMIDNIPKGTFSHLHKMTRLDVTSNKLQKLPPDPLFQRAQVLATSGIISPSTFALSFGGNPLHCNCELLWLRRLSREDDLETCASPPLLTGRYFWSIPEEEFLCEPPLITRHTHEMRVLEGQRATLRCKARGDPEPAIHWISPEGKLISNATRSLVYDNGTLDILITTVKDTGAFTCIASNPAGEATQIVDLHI
Description: BLI; BLItz; hySALM5-Ecto-Fc pre-bound to protein A biosensors, LAR-Ig-FN12 as analyte at three concentrations; 20 mM HEPES, 50 mM NaCl, pH 7.0; global fit. The note with it: both partners purified. A general note: Biolayer interferometry detects binding as a change in optical thickness at a sensor tip.

Assay [2] has as its target T2, LAR-Ig (Ig1-3)-Fc of the BLI (human, UniProt P10586 30-318).
T2 chain: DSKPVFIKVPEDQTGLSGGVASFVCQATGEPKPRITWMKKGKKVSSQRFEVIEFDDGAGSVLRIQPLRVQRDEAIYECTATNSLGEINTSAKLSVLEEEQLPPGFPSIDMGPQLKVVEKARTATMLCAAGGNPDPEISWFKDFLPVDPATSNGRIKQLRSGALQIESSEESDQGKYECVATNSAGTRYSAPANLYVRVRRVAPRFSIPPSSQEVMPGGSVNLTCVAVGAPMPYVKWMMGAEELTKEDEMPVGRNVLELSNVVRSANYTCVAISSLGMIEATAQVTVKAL
Description: BLI; BLItz; 10 μM LAR-Ig (Ig1-3)-Fc or LAR-FN12-Fc immobilised on protein A biosensors for 120 s, hybrid SALM5-Ecto as analyte at three concentrations; 20 mM HEPES, 50 mM NaCl, pH 7.0; global fit. As to conditions: both partners purified.

Sequence of SALM5 (untagged) (not stated (mouse and human SALM5 are named for other constructs)) (Q8BXA0 18-719): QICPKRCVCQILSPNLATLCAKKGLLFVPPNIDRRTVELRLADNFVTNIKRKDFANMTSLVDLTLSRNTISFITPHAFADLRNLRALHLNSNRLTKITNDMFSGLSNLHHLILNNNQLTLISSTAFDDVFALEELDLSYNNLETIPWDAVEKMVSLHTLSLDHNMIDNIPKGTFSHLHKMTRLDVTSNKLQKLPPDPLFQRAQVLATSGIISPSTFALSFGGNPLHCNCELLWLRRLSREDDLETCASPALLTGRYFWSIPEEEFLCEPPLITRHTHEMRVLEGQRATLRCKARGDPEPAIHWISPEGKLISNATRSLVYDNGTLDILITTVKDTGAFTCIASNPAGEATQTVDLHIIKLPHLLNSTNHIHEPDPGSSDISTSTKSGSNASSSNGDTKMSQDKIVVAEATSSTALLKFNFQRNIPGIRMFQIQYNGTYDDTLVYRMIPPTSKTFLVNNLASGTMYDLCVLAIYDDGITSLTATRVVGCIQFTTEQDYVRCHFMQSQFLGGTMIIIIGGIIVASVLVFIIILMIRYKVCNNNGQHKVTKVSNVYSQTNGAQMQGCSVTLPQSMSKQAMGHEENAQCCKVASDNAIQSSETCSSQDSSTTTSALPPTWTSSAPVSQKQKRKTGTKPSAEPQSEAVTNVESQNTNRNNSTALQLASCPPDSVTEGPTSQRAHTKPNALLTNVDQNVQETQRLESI

“LAR-Ecto-Fc (meA^− and meB^−) (from UniProt P10586 30-1263) (Fc fusion)”: in assay [1], the Kd amounted to 0.00896 µM.

B1: LAR-Ig-FN12 (Ig1-3-FNIII12, aa 27A–513A) (domain or fragment)
chain: AHGDSKPVFIKVPEDQTGLSGGVASFVCQATGEPKPRITWMKKGKKVSSQRFEVIEFDDGAGSVLRIQPLRVQRDEAIYECTATNSLGEINTSAKLSVLEEEQLPPGFPSIDMGPQLKVVEKARTATMLCAAGGNPDPEISWFKDFLPVDPATSNGRIKQLRSGALQIESSEESDQGKYECVATNSAGTRYSAPANLYVRVRRVAPRFSIPPSSQEVMPGGSVNLTCVAVGAPMPYVKWMMGAEELTKEDEMPVGRNVLELSNVVRSANYTCVAISSLGMIEATAQVTVKALPKPPIDLVVTETTATSVTLTWDSGNSEPVTYYGIQYRAAGTEGPFQEVDGVATTRYSIGGLSPFSEYAFRVLAVNSIGRGPPSEAVRARTGEQAPSSPPRRVQARMLSASTMLVQWEPPEEPNGLVRGYRVYYTPDSRRPPNAWHKHNTDAGLLTTVGSLLPGITYSLRVLAFTAVGDGPPSPTIQVKTQQGVPA
modifications: splice form not given; A-B- form taken because the printed limits fit the P10586 numbering (no meA, no meB) / C-terminal Fc carrier omitted (the Fc would dimerise the chain); VLRB.61 signal peptide
In the assay with hySALM5-Ecto-Fc, B1 returned a Kd of 38.5 µM.

B2: hySALM5-Ecto (hybrid SALM5, LRR + Ig domains), tag cleaved (domain or fragment)
chain: T1 chain
modifications: VLRB.61 printed as M1-L82; signal peptide (1-23) taken as removed on secretion; hagfish accession not among the candidates; LVPR residue left by thrombin cleavage omitted / A-B- form taken as stated …
Turning to B2, the Kd in assay [2] worked out at 16.6 µM.
